Experimental data: PMC9407403 (Proceedings of the National Academy of Sciences of the …, 2022)

B1: Fab fragment of nAb X01 (Fab, V domains shown)
VH: EIQLQQSGPELVAPGASVKVSCKASGYAFTSYNMYWVRQSHGKSLEWIGYIVPYNGGTTYNQEFKGKATLTVDKSSNTAYIHLNSLTSEDSAVYYCAKEGTYYGYDGVLADWGQGTLVT
VL: DIQMTQSSSYLSVSLGGRVTITCKASDHINNWLAWYQQKPGNAPRLLISGVTNLETGVPSRFSGSGSGKNFTLSIASLQTEDVATYYCQQYWSFPWTFGGGTKLEIR
B2: Fab fragment of nAb X10 (Fab, V domains shown)
VH: EVQLQQSGPELVKPGASVKISCKTSGYTFTEYTLHWVKQSHGKSLEWIGGFDPNFGGATYNLKFEDKATLTVDKSSNTAYMELRSLTSEDSAVFYCARGDYGTSYAYFDFWGQGTTLTVSS
VL: DIVLTQSPASLAVSLGQRAAISCRASQSVSTSSHNYVHWYQQRPGQPPKLLIKYASNLECGVPARFSGSGSGTDFTLNIHPVEEEDSAAYYCQHSWEIPYTFGGGTKLEIK

Molecular target: T1, SARS-CoV-2 WT spike (S) protein (SARS-CoV-2 prototype Wuhan-Hu-1 …, UniProt P0DTC2)
T1 construct: source: bought: Sino Biological Inc., purified
Assay: cryo-EM structure
Settings: both partners purified

Row | Binder | binding result
1 | B1 | binds
2 | B2 | binds
